Source: US20170355757A1 (Regeneron, published 2017)

What was measured:
Human C5 [1] = biological target: T1, Human C5 (human, UniProt P01031 19-1676); assay: SPR, mAb captured by anti-hFc, 37C
T1 construct: The natural protein has a beta and an alpha chain; also called complement factor 5; complement component 5
Experimental: (§1) Equilibrium dissociation constants (KD values) for C5 binding to purified anti-C5 antibodies were determined using a real-time surface plasmon resonance biosensor assay on a Biacore T200 instrument. The Biacore sensor surface was derivatized by amine coupling with a monoclonal mouse anti-human Fc antibody (GE Healthcare, # BR-1008-39) to capture anti-C5 antibodies expressed with human Fc constant regions. Biacore binding studies were conducted in HBST running buffer (0.01M HEPES pH 7.4, 0.15M NaCl, 3 mM EDTA, 0.05% v/v Surfactant P20).
(§2) Human C5 was obtained from a commercial source (EMD). Other C5 reagents were expressed with a C-terminal myc-myc-hexahistidine tag (subsequently referred to as C5-mmh). […] Association of all the C5 reagents to each of the captured monoclonal antibodies was monitored for 3 minutes and their dissociation in HBST running buffer was monitored for 8 minutes. All the binding kinetics experiments were performed at either 25° C. or 37° C. Kinetic association (kₐ) and dissociation (kd) rate constants were determined by fitting the real-time sensorgrams to a 1:1 binding model using Scrubber 2.0c curve fitting software. Binding dissociation equilibrium constants (KD) and dissociative half-lives (t %) were calculated from the kinetic rate constants as: KD (M)=kd/kₐ and t_{1/2} (min)=In2/(60×kd)

Human C5 [2] = biological target: T1, Human C5; assay: SPR, mAb captured by anti-hFc, 25C
Experimental: as §1, §2

monkey C5-mmh = biological target: T2, monkey C5-mmh (monkey, UniProt P01031 19-1676 (human entry), limits assumed); assay: SPR, mAb captured by anti-hFc, 25C
T2 construct: Expressed with a C-terminal myc-myc-hexahistidine tag
T2 chain: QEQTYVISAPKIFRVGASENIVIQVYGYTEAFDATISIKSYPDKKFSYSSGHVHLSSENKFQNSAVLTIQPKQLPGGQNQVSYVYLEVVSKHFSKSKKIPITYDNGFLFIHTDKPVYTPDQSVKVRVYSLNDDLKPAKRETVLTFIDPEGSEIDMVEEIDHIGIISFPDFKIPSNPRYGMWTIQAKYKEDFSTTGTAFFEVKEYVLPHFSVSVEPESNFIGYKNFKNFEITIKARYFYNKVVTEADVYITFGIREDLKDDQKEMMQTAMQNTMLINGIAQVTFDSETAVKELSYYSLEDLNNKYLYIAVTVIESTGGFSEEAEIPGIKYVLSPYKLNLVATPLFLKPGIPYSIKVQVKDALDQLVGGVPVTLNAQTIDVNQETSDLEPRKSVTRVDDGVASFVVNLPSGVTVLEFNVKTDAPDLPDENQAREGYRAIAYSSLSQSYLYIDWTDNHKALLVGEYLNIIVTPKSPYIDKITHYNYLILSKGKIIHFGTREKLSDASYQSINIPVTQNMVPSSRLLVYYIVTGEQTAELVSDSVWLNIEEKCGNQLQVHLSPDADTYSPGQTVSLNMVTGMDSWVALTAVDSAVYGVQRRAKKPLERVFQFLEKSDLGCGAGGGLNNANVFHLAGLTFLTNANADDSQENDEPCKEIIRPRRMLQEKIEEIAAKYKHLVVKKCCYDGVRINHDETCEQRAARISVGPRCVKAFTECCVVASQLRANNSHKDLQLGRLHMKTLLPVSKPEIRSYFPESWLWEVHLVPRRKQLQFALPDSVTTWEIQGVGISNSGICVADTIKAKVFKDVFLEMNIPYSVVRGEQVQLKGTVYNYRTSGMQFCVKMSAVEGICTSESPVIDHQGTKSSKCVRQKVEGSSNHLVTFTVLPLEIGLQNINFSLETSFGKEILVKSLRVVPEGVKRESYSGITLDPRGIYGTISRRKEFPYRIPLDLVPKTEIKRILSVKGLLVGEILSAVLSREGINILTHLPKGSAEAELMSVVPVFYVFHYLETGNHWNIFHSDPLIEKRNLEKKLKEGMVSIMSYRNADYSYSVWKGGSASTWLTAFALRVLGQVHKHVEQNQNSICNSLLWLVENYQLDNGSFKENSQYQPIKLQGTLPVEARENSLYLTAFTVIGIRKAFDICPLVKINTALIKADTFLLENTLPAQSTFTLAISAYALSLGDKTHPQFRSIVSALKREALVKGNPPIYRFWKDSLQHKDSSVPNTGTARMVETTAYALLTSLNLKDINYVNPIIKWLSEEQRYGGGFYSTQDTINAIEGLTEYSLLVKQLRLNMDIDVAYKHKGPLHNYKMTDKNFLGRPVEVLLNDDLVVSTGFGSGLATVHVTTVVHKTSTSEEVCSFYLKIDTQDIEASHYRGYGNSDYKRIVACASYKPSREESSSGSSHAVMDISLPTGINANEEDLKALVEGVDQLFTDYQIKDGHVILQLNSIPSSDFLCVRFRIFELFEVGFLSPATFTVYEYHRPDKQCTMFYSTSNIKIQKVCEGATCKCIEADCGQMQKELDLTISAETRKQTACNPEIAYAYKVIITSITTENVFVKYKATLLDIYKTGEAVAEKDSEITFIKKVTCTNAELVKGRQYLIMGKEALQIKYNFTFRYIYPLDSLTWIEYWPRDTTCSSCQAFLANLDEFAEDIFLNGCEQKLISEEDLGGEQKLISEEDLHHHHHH
Experimental: as §1, §2

Row | Binder | 100 nM Human C5 Bound (RU) (Human C5 [1]) | Kd (Human C5 [1]) [nM] | koff (Human C5 [1]) [s⁻¹] | kon (Human C5 [1]) [M⁻¹ s⁻¹] | t½ (Human C5 [1]) [min] | 100 nM Human C5 Bound (RU) (Human C5 [2]) | Kd (Human C5 [2]) [nM] | koff (Human C5 [2]) [s⁻¹] | kon (Human C5 [2]) [M⁻¹ s⁻¹] | t½ (Human C5 [2]) [min] | 100 nM monkey C5-mmh Bound (RU) (monkey C5-mmh) | Kd (monkey C5-mmh) [nM] | koff (monkey C5-mmh) [s⁻¹] | kon (monkey C5-mmh) [M⁻¹ s⁻¹] | t1/2 (monkey C5-mmh) [min]
1 | H4H12176P2 (antibody, human IgG4, V domains shown) VH: EVQLVESGGGLVQPGGSLRLSCAASGFHSNRYWMDWVRQAPGKGLEWVANIKQDGSEENYVDSVKGRFTISRDNAKNSLYLQMNSLRAEDTAVYYCARDRSTSWVPYWFFDLWGRGTLVTVSS VL: not shown | 71 | 1.59 | 0.000234 | 147000 | 49 | 96 | 0.201 | 6.75e-05 | 336000 | 171 | 69 | 0.322 | 5.88e-05 | 182000 | 196
2 | H4H12163P (antibody, human IgG4, V domains shown) VH: EVQLVESGGDLVQPGGSLRLSCAASGFTFSSYAMNWVRQGPGKGLEWVSAISGRGDSTYYADSVKGRLTISRDNSKNTLYLQMNSLRAEDTAVYYCVKEGEQLVYWYFDLWGRGTLVTVSS VL: DIQMTQSPSSLSASVGDRVTITCRASQTISNFLHWYQQKPGKAPKLLIYAASSLQSGVPSRFSGSGSGTDFTLTISSLQPEDFSTYFCQQSYTTPLTFGGGTKVEIK | 139 | 0.729 | 0.000665 | 911000 | 17 | 108 | 0.324 | 0.000208 | 643000 | 55 | 98 | 2.49 | 0.000775 | 311000 | 15
3 | H4H12164P (antibody, human IgG4, V domains shown) VH: EVQLVESGGGLVRSGGSLRLSCAASGFTFNRYAMTWVRQAPGKGLEWVSAISGSGSSTYYTDSVKGRFTISRDNSKNSVDLQMHSLRVEDTAIYYCARGTTVTTGYGMDVWGQGTTVTVSS VL: DIQMTQSPSSLSASVGDRVTFTCQASQDITNSLNWYQQKPGRAPKLLIYDASYLKAGVPSRFSGSGSGTDFTFTISSLQPEDIATYYCQQYDDLPYTFGQGTKLEIK | 140 | 0.323 | 0.000128 | 396000 | 90 | 103 | 0.302 | 8.84e-05 | 292000 | 131 | 66 | 12 | 0.00153 | 127000 | 8
4 | H4H12175P (antibody, human IgG4, V domains shown) VH: EVQLVESGGGVVQPGGSLRLSCAASGFTFNDYAMHWVRQAPGKGLEWVSLISGDGGNTYYADSVKGRLTISRDNSKNSLYLQMNSLRTEDTALYYCAKDKGWNFGYFDLWGRGTLVTVSS VL: DIQMTQSPSSLSTSVGDRVTITCRASQNIDTYLNWYQQKPGKAPKLLIYDASSLQSGVPSRFSGSGSGTDFTLTITSLQPEDFATYYCQQNDNILHPLTFGGGTKVEIK | 132 | 2.15 | 0.000637 | 296000 | 18 | 100 | 0.91 | 0.000196 | 216000 | 59 | 59 | 25.7 | 0.00165 | 64200 | 7
5 | H4H12169P (antibody, human IgG4, V domains shown) VH: EVQLVESGGGLAQPGGSLRLSCAASGFTFRSYAMSWVRQAPGKGPEWVSGIGGNGVTTYYADSVKGRFTISRDNSKNTLFLQMNSLRAEDTAVYYCVQGGLGGYFTGYWGQGTLVTVSS VL: DIQMTQSPSSLSASVGDRVTITCRASQSISTYLNWYQQNPGKAPKLLIFDASSLQSGVPSRFSGSGSGTDFTLTIRGLQPEDFATYYCQQSYSAPLTFGGGTKVEIK | 65 | 3.06 | 0.000352 | 115000 | 33 | 18 | 1.96 | 0.00044 | 224000 | 26 | 22 | 27.8 | 0.00455 | 164000 | 3
6 | H4H12167P (antibody, human IgG4, V domains shown) VH: QVQLVESGGGLVKPGGSLRLSCAASGFTFSDSYMSWIRQAPGKGLEWISYIGSSGNTFYYADSVKGRFTISRDNANNLLYLQMTSLRAEDTAVYYCAREEGDFWSAVDSWGQGTLVTVSS VL: DIQLTQSPSFLSASVGDRVTITCWASQGISSYLAWYQQKPGKAPKLLIHTASTLQSGVPSRFSGSGSGTEFTLTISNLQPEDFATYYCQQLNSYPFTFGPGTKVDIK | 153 | 0.295 | 0.000381 | 1.29e+06 | 30 | 116 | 0.121 | 0.000131 | 1.09e+06 | 88 | 111 | 0.315 | 0.000132 | 419000 | 88
7 | H4H12168P (antibody, human IgG4, V domains shown) VH: QVQLVESGGGVVQPGGSLRLSCAASGFTFGGHAMHWVRQAPGKGLEWLAVISSDGSNKQYADSVKGRFTISRDNPKNTLYLQMNSLRVGDTAIYYCAKEVAPRYYYYGLDVWGQGTTVTVSS VL: DIQMTQSPSSLSASVGDRVTITCRASQDISNFLAWYQQKPGKVPKLLIYTASTLQSGVPSRFSGSGSGTDFTLTVSSLQPEDVATYYCQKYAGALTFGPGTKVDIK | 12 | 18.5 | 0.000464 | 25000 | 25 | 113 | 0.112 | 4.75e-05 | 423000 | 243 | 86 | 0.66 | 0.000114 | 173000 | 101
8 | H4H12159P (antibody, human IgG4, V domains shown) VH: QVQLVESGGGVVQPGRSLRLSCGASGFTFSTYGMHWVRQAPGKGLEWVAVIWDDGNNKYYADSVKGRFTISRDNSKNTLYLQMNSLRAEDTAVYYCARDSEVAPVGDYWGQGTLVTVSS VL: DIQMTQSPSTLSASVGDRVTIICRASQSINRWLAWYQQKPGKAPKLLIYKASSLESGVPSRFSGSGSGTEFTLTISSLQPDDFAAYYCQQYNDYSYTFGQGTKLEIK | 145 | 0.103 | 0.000107 | 1.04e+06 | 108 | 118 | 0.0731 | 7.13e-05 | 975000 | 162 | 116 | 0.133 | 4.69e-05 | 354000 | 246
